Measurements from patent US20100150939A1.

Legend:
[1] = target: recombinant human ADAM10 (amino residues 18-672, Cat. No 936-AD) (human) (UniProt O14672)
[2] = target: 7 inhibiting periplasm out of 31 periplasm tested for ADAM9
[3] = target: 9 activating periplasm out of 31 periplasm tested for ADAM9
[4] = target: 6 activating periplasm out of 27 periplasm tested for ADAM10
[5] = target: 5 inhibiting periplasm out of 27 periplasm tested for ADAM10

| Percent activity compared to no periplasm (50x excess) [1] | Binder | further results |
| --- | --- | --- |
| 84.6 percent | Nanobody 39-D1 (VHH) VHH: KVQLVESGGGLVQAGGSLRLSCAASGNIFINNAVGWYRQAPGKQREMVAAMLSGGSTNYADSVKGRFTISRDNAKNTVYLQMNSLKPEDTAVYYCNVQVNGTWARWGQGTQVTVSS |  |
| 144 percent | Nanobody 39-F1 (VHH) VHH: EVQLVESGGGLVQAGGSLRLSCAASERIFSTYFMGWFRQAPGKEREFVAFISGNGGSTDYADSVKGRFAISRDNVKNTLYLQMSSLKPDDTAVYYCAVAGRQIKSTWGYWGQGTQVTVSS |  |
| 163 percent | Nanobody 32-E1, E6, 39-A2 (VHH) VHH: EVQLVESGGGLVQAGGSLRLSCAASERIFSTYFMGWFRQAPGKEREFVAFISGNGGSTDYADSVKGRFAISRDNVKNTLYLQMSSLKPDDTAVYYCAVAGRQIKSTWDYWGQGTQVTVSS |  |
| 76.4 percent | Nanobody 39-D8, E8 (VHH) VHH: EVQLVESGGGLVRARGSLRLSCAASGGTFSRYAMGWFRQAPGKEREFVAAISRSGGNTYFTESVKGRFTMSRDNAKNTVYLQMNSLKPEDTAVYYCAARSAAVYTTTVYLVDFEYNYWGQGTQVTVSS |  |
| 67.1 percent | Nanobody 39-B1 (VHH) VHH: EVQLVESGGGLVQAGGSLRLSCARSGRISNINIMAWYRQAPGKTRDMVAAIIGDSTNYADSVKGRFTISRDNAKNTVYLHMNRLKPEDTGVYYCKISGVDWGQGTQVTVSS |  |
| 85.6 percent | Nanobody 33-D1 (VHH) VHH: EVQLVESGGGLVQAGDSLRLSCAATGRTFSSDAMGWFRQAPGKERAFVAGINYNSVYRYYTDSVEGRFTISRDNAKNTVYLQMNSLKPEDTAVYYCAADSDYYSLIGGRPVNYWGQGTQVTVSS |  |
|  | recombinant human ADAM9 (amino residues 1-697, R&D Systems, Cat. No. 939-AD) (protein) AARPGFQQTSHLSSYEIITPWRLTRERREAPRPYSKQVSYVIQAEGKEHIIHLERNKDLLPEDFVVYTYNKEGTLITDHPNIQNHCHYRGYVEGVHNSSIALSDCFGLRGLLHLENASYGIEPLQNSSHFEHIIYRMDDVYKEPLKCGVSNKDIEKETAKDEEEEPPSMTQLLRRRRAVLPQTRYVELFIVVDKERYDMMGRNQTAVREEMILLANYLDSMYIMLNIRIVLVGLEIWTNGNLINIVGGAGDVLGNFVQWREKFLITRRRHDSAQLVLKKGFGGTAGMAFVGTVCSRSHAGGINVFGQITVETFASIVAHELGHNLGMNHDDGRDCSCGAKSCIMNSGASGSRNFSSCSAEDFEKLTLNKGGNCLLNIPKPDEAYSAPSCGNKLVDAGEECDCGTPKECELDPCCEGSTCKLKSFAECAYGDCCKDCRFLPGGTLCRGKTSECDVPEYCNGSSQFCQPDVFIQNGYPCQNNKAYCYNGMCQYYDAQCQVIFGSKAKAAPKDCFIEVNSKGDRFGNCGFSGNEYKKCATGNALCGKLQCENVQEIPVFGIVPAIIQTPSRGTKCWGVDFQLGSDVPDPGMVNEGTKCGAGKICRNFQCVDASVLNYDCDVQKKCHGHGVCNSNKNCHCENGWAPPNCETKGYGGSVDSGPTYNEMNTALRD | ADAM protease assay, fluorogenic peptide substrate ES003, periplasms containing Nanobodies [2]: 7 showed significant inhibition; ADAM protease assay, fluorogenic peptide substrate ES003, periplasms containing Nanobodies [3]: 9 were significantly activating |
| 86.5 percent | Nanobody 33-A1 (VHH) VHH: EVQLVESGGGLVQAGGSLRLSCAASGDTFSRYSMGWFRQAPGKEREFVVYITRSGRTTYYQDSVKGRFTISRDNAKNTVYLQMNSLKPEDTAVYYCAAMRSGNVRYPERYDYWGQGTQVTVSS |  |
|  | recombinant human ADAM10 (amino residues 18-672, Cat. No 936-AD) (protein) GGQYGNPLNKYIRHYEGLSYNVDSLHQKHQRAKRAVSHEDQFLRLDFHAHGRHFNLRMKRDTSLFSDEFKVETSNKVLDYDTSHIYTGHIYGEEGSFSHGSVIDGRFEGFIQTRGGTFYVEPAERYIKDRTLPFHSVIYHEDDINYPHKYGPQGGCADHSVFERMRKYQMTGVEEVTQIPQEEHAANGPELLRKKRTTSAEKNTCQLYIQTDHLFFKYYGTREAVIAQISSHVKAIDTIYQTTDFSGIRNISFMVKRIRINTTADEKDPTNPFRFPNIGVEKFLELNSEQNHDDYCLAYVFTDRDFDDGVLGLAWVGAPSGSSGGICEKSKLYSDGKKKSLNTGIITVQNYGSHVPPKVSHITFAHEVGHNFGSPHDSGTECTPGESKNLGQKENGNYIMYARATSGDKLNNNKFSLCSIRNISQVLEKKRNNCFVESGQPICGNGMVEQGEECDCGYSDQCKDECCFDANQPEGRKCKLKPGKQCSPSQGPCCTAQCAFKSKSEKCRDDSDCAREGICNGFTALCPASDPKPNFTDCNRHTQVCINGQCAGSICEKYGLEECTCASSDGKDDKELCHVCCMKKMDPSTCASTGSVQWSRHFSGRTITLQPGSPCNDFRGYCDVFMRCRLVDADGPLARLKKAIFSPELYENIAE | ADAM protease assay, fluorogenic peptide substrate ES003, periplasms containing Nanobodies [4]: 6 activated significantly (more than 200% initial activity); ADAM protease assay, fluorogenic peptide substrate ES003, periplasms containing Nanobodies [5]: 5 inhibited significantly (less than 40% residual activity) |
| 194 percent | Nanobody 39-C8 (VHH) VHH: EMQLVESGGGLVQTGGSLRLSCAASGRTFTSYCVGWWRQAPGKERDVVAAITRGSNSTDYVDSVKGRFTISRDNAENTVYLQMNSLKPEDTAVYYCAADINCRNLYTGRPEYWGQGTQVTVSS |  |
